The chains are these.
B1: library; numbered along this chain (parent)
chain: MNIQIGELAKRTACPVVTIRFYEQEGLLPPPGRSRGNFRLYGEEHVERLQFIRHCRSLDMPLSDVRTLLSYRKRPDQDCGEVNMLLDEHIRQVESRIGALLELKHHLVELREACSGARPAQSCGILQGLSDCVCDTRGTTAHPSD

± gives the standard deviation of the averaged measurements.

Data set [1] covers variants of B1. In words: sfGFP reporter fluorescence (15 h) (µM FITC); higher = higher leak. The note with it: library round: Round 1; ligand: none. In a few lines: (§1)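 Readout was endpoint sfGFP fluorescence, converted to µM FITC through standard curves. Reactions were 1 μL of BL21 Star (DE3) PANOx-SP extract with pPbrR-sfGFP reporter, 30 μg/mL GamS and linear PbrR templates normalized to 5 nM, containing 1 µM lead chloride, 30 µM zinc acetate or no metal. Incubation lasted 15 hr at 30 °C, with up to three biological replicates.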

Variants of B1 are the subject of data set [2]. In words: sfGFP reporter fluorescence (15 h) (µM FITC); higher = stronger transcriptional activation. The note with it: library round: Round 1. In a few lines:
as §1

In the case of E94Y P143C, the sfGFP reporter fluorescence amounted to 0.0629 ± 0.0031 in data set [1], 0.0621 ± 0.0044 in data set [2] (ligand: 1 µM Pb) and 0.0906 ± 0.0035 in data set [2] (ligand: 30 µM Zn).

With C79F G128M, the sfGFP reporter fluorescence is 0.0586 ± 0.0017 in data set [1], 0.0606 ± 0.0011 in data set [2] (ligand: 1 µM Pb) and 0.0597 ± 0.00073 in data set [2] (ligand: 30 µM Zn).

With G128I D131C, the sfGFP reporter fluorescence in data set [1] turned out to be 0.0762 ± 0.0028; in data set [2] (ligand: 1 µM Pb), 0.146 ± 0.018; in data set [2] (ligand: 30 µM Zn), 0.618 ± 0.011.

On to L107N G128M, for which the sfGFP reporter fluorescence amounted to 0.0744 ± 0.0042 in data set [1], 0.225 ± 0.02 in data set [2] (ligand: 1 µM Pb) and 0.917 ± 0.088 in data set [2] (ligand: 30 µM Zn).

With P30V K104V, the figures for the sfGFP reporter fluorescence in data set [1], in data set [2] (ligand: 1 µM Pb) and in data set [2] (ligand: 30 µM Zn) were 0.0683 ± 0.002, 0.117 ± 0.0083 and 0.641 ± 0.092, respectively.

On to L100I, for which the sfGFP reporter fluorescence stood at 0.0611 ± 0.0014 in data set [1], 0.0649 ± 0.0013 in data set [2] (ligand: 1 µM Pb) and 0.216 ± 0.019 in data set [2] (ligand: 30 µM Zn).

As for V108I D131C, the sfGFP reporter fluorescence in data set [1] worked out at 0.0613 ± 0.0026; in data set [2] (ligand: 1 µM Pb), 0.0713 ± 0.0046; in data set [2] (ligand: 30 µM Zn), 0.134 ± 0.0021.

For the variant N83S E112L, the sfGFP reporter fluorescence turned out to be 0.0612 ± 0.0034 in data set [1], 0.0759 ± 0.0016 in data set [2] (ligand: 1 µM Pb) and 0.152 ± 0.006 in data set [2] (ligand: 30 µM Zn).

For N83I I97H, the sfGFP reporter fluorescence in data set [1] turned out to be 0.0618 ± 0.0012; in data set [2] (ligand: 1 µM Pb), 0.0654 ± 0.0032; in data set [2] (ligand: 30 µM Zn) it was 0.0625 ± 0.003.

As for P61N D64K N83T, the sfGFP reporter fluorescence in data set [1] turned out to be 0.0684 ± 0.00076; in data set [2] (ligand: 1 µM Pb), 0.232 ± 0.045; in data set [2] (ligand: 30 µM Zn), 0.635 ± 0.034.

Turning to N83Y R111D, the sfGFP reporter fluorescence in data set [1] came to 0.06194 ± 0.00037; in data set [2] (ligand: 1 µM Pb) it was 0.0568 ± 0.0025; in data set [2] (ligand: 30 µM Zn) it was 0.0571 ± 0.0031.

On to K104V L107G G128M, for which the sfGFP reporter fluorescence in data set [1] was 0.0645 ± 0.0022; in data set [2] (ligand: 1 µM Pb) it was 0.0955 ± 0.013; in data set [2] (ligand: 30 µM Zn), 0.29 ± 0.028.

With D131T D135A, the sfGFP reporter fluorescence in data set [1] was determined as 0.0636 ± 0.0011; in data set [2] (ligand: 1 µM Pb), 0.08075 ± 0.00021; in data set [2] (ligand: 30 µM Zn) it was 0.365 ± 0.0092.

As to L62I R111L, the sfGFP reporter fluorescence in data set [1] stood at 0.0639 ± 0.002; in data set [2] (ligand: 1 µM Pb), 0.0671 ± 0.0036; in data set [2] (ligand: 30 µM Zn), 0.143 ± 0.0089.

Regarding N83T L107F, the sfGFP reporter fluorescence is 0.06096 ± 0.00056 in data set [1], 0.059 ± 0.002 in data set [2] (ligand: 1 µM Pb) and 0.0604 ± 0.0011 in data set [2] (ligand: 30 µM Zn).

Consider N83T L107E, for which the sfGFP reporter fluorescence in data set [1] came out at 0.0668 ± 0.00076; in data set [2] (ligand: 1 µM Pb), 0.0635 ± 0.0022; in data set [2] (ligand: 30 µM Zn), 0.0662 ± 0.0024.

As for E109H D135A, the sfGFP reporter fluorescence in data set [1] is 0.0629 ± 0.00092; in data set [2] (ligand: 1 µM Pb), 0.0832 ± 0.011; in data set [2] (ligand: 30 µM Zn), 0.254 ± 0.02.

Take P61D D64M R111L: the sfGFP reporter fluorescence in data set [1] is 0.177 ± 0.015; in data set [2] (ligand: 1 µM Pb) it was 0.323 ± 0.09; in data set [2] (ligand: 30 µM Zn) it was 1.43 ± 0.099.

With P61N C134M, the sfGFP reporter fluorescence in data set [1] came out at 0.102 ± 0.0054; in data set [2] (ligand: 1 µM Pb), 0.233 ± 0.0043; in data set [2] (ligand: 30 µM Zn) it was 1.53 ± 0.14.

E43Y P61N: the sfGFP reporter fluorescence in data set [1] was 0.0713 ± 0.0038; in data set [2] (ligand: 1 µM Pb), 0.139 ± 0.0038; in data set [2] (ligand: 30 µM Zn), 0.822 ± 0.12.

In the case of D64T D131C, the sfGFP reporter fluorescence in data set [1] came out at 0.143 ± 0.0074; in data set [2] (ligand: 1 µM Pb), 0.359 ± 0.033; in data set [2] (ligand: 30 µM Zn), 1.51 ± 0.07.

For the variant I3G K104V, the results for the sfGFP reporter fluorescence in data set [1], in data set [2] (ligand: 1 µM Pb) and in data set [2] (ligand: 30 µM Zn) were 0.0618 ± 0.0017, 0.06841 ± 0.00056 and 0.0899 ± 0.0043, respectively.

Take N83S D135P: the sfGFP reporter fluorescence in data set [1] amounted to 0.0623 ± 0.00073; in data set [2] (ligand: 1 µM Pb), 0.0811 ± 0.0058; in data set [2] (ligand: 30 µM Zn), 0.145 ± 0.004.

Regarding N83T D131A P143I, the sfGFP reporter fluorescence amounted to 0.0661 ± 0.0015 in data set [1], 0.088 ± 0.0036 in data set [2] (ligand: 1 µM Pb) and 0.158 ± 0.014 in data set [2] (ligand: 30 µM Zn).

In the case of R96G, the sfGFP reporter fluorescence came out at 0.0668 ± 0.0022 in data set [1], 0.076 ± 0.004 in data set [2] (ligand: 1 µM Pb) and 0.195 ± 0.012 in data set [2] (ligand: 30 µM Zn).

For the variant D135A P143T, the sfGFP reporter fluorescence in data set [1] was found to be 0.063 ± 0.0013; in data set [2] (ligand: 1 µM Pb) it was 0.07562 ± 0.00042; in data set [2] (ligand: 30 µM Zn) it was 0.374 ± 0.028.

As for M60L P61N D64K K104T, the sfGFP reporter fluorescence in data set [1] stood at 0.137 ± 0.0056; in data set [2] (ligand: 1 µM Pb), 0.446 ± 0.019; in data set [2] (ligand: 30 µM Zn), 1.18 ± 0.11.

Turning to D64A D135R, the sfGFP reporter fluorescence was 0.0876 ± 0.00097 in data set [1], 0.18 ± 0.034 in data set [2] (ligand: 1 µM Pb) and 1.55 ± 0.021 in data set [2] (ligand: 30 µM Zn).

As to M60L D64K K104V L107C G128I, the sfGFP reporter fluorescence came to 1.95 ± 0.25 in data set [1], 2.02 ± 0.3 in data set [2] (ligand: 1 µM Pb) and 2.61 ± 0.17 in data set [2] (ligand: 30 µM Zn).

Take M60L D64K G128T D131C: the sfGFP reporter fluorescence in data set [1] was determined as 0.754 ± 0.023; in data set [2] (ligand: 1 µM Pb), 1.8 ± 0.19; in data set [2] (ligand: 30 µM Zn), 2.25 ± 0.44.

With P61N I90L K104G, the sfGFP reporter fluorescence in data set [1] came to 0.0641 ± 0.0019; in data set [2] (ligand: 1 µM Pb), 0.0616 ± 0.0054; in data set [2] (ligand: 30 µM Zn), 0.119 ± 0.012.

In the case of P61N V108M, the sfGFP reporter fluorescence turned out to be 0.07 ± 0.0013 in data set [1], 0.122 ± 0.0096 in data set [2] (ligand: 1 µM Pb) and 0.698 ± 0.094 in data set [2] (ligand: 30 µM Zn).

On to D64T G128I D135A, for which the results for the sfGFP reporter fluorescence in data set [1], in data set [2] (ligand: 1 µM Pb) and in data set [2] (ligand: 30 µM Zn) were 0.4487 ± 0.003, 0.801 ± 0.052 and 2.35 ± 0.3, respectively.

As for P30A K104V, the sfGFP reporter fluorescence is 0.0666 ± 0.0032 in data set [1], 0.115 ± 0.011 in data set [2] (ligand: 1 µM Pb) and 0.583 ± 0.05 in data set [2] (ligand: 30 µM Zn).

Take P61N P143L: the results for the sfGFP reporter fluorescence in data set [1], in data set [2] (ligand: 1 µM Pb) and in data set [2] (ligand: 30 µM Zn) were 0.0754 ± 0.0012, 0.151 ± 0.0086 and 0.804 ± 0.13, respectively.

With D131S C134V, the sfGFP reporter fluorescence was 0.072 ± 0.005 in data set [1], 0.126 ± 0.0046 in data set [2] (ligand: 1 µM Pb) and 1.34 ± 0.045 in data set [2] (ligand: 30 µM Zn).

Regarding L58F K104V, the sfGFP reporter fluorescence in data set [1] was 0.0645 ± 0.00097; in data set [2] (ligand: 1 µM Pb), 0.0808 ± 0.00092; in data set [2] (ligand: 30 µM Zn) it was 0.182 ± 0.024.

On to R111F E112A, for which the sfGFP reporter fluorescence in data set [1] amounted to 0.05962 ± 0.00021; in data set [2] (ligand: 1 µM Pb), 0.0657 ± 0.00092; in data set [2] (ligand: 30 µM Zn), 0.22 ± 0.021.

On to S115G D131C, for which the sfGFP reporter fluorescence in data set [1] came to 0.0572 ± 0.0013; in data set [2] (ligand: 1 µM Pb), 0.0619 ± 0.0016; in data set [2] (ligand: 30 µM Zn) it was 0.0992 ± 0.0037.

Turning to N83T D131S P143A, the sfGFP reporter fluorescence stood at 0.059 ± 0.0033 in data set [1], 0.0792 ± 0.0071 in data set [2] (ligand: 1 µM Pb) and 0.156 ± 0.017 in data set [2] (ligand: 30 µM Zn).

P29L: the sfGFP reporter fluorescence in data set [1] was found to be 0.0608 ± 0.0015; in data set [2] (ligand: 1 µM Pb) it was 0.0704 ± 0.0041; in data set [2] (ligand: 30 µM Zn), 0.213 ± 0.0041.

On to G36K P61N, for which the sfGFP reporter fluorescence in data set [1] is 0.0721 ± 0.0043; in data set [2] (ligand: 1 µM Pb) it was 0.112 ± 0.0096; in data set [2] (ligand: 30 µM Zn) it was 0.588 ± 0.075.

Consider N83T P143R, for which the sfGFP reporter fluorescence in data set [1] is 0.0618 ± 0.0013; in data set [2] (ligand: 1 µM Pb) it was 0.0709 ± 0.0047; in data set [2] (ligand: 30 µM Zn) it was 0.145 ± 0.0075.

As to N83T L85A, the sfGFP reporter fluorescence in data set [1] was 0.06145 ± 0.00056; in data set [2] (ligand: 1 µM Pb) it was 0.0596 ± 0.0031; in data set [2] (ligand: 30 µM Zn), 0.0602 ± 0.00076.

The values above are taken from the supplement of paper PMC12783771.
